The values that follow come from patent publication US12522635B2, “Amyloid peptide variants” (Loyola Marymount University, priority 2019, dated 2026).

Where a SMILES comes first, the peptide text is derived from it. Bridges are numbered along the chain shown (N, C = ends). Where no end group is shown, it is not given here.

Data set [1] deals with T1, human IAPP (hIAPP) (Homo sapiens, UniProt P10997).
T1 construct: This 37 amino acid polypeptide is co-secreted from pancreatic β-islet cells with insulin
T1 sequence (P10997 34-70 limits assumed): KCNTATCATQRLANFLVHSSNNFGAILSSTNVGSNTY
Nature of the data set: Atomic force microscopy (AFM) of hIAPP fibril formation when mixed with IAPP peptides. The class given is biochemical. To be noted: for inhibition of hIAPP fibril formation, AFM: 37 μM hIAPP and 75 μM peptide, 37° C. with shaking for 40 minutes. The protocol: Samples labeled with hIAPP contained 40 μM hIAPP. The sample with pramlintide and hIAPP contained a 2:1 molar mixture (80 μM Pramlintide mixed with 40 μM hIAPP). The samples with raccoon IAPP and Pramlintide alone contained 40 μM of the indicated peptides. Each sample was incubated for 40 minutes at 37° C. with shaking; conditions known to promote hIAPP amyloid formation. All scans show raw data with no flattening and are […].
Each sample contained 37 μM hIAPP and 75 μM of the indicated peptide. Samples were incubated at 37° C. with shaking for 40 minutes. All scans show raw data with no flattening and are […].
Each sample contained 37 μM hIAPP mixed with 37 μM of the indicated peptide. Samples were incubated at 37° C. with shaking for 30 minutes before depositing each sample onto freshly cleaved mica.
Samples of hIAPP with or without animal IAPP were prepared as described in Example 1 and were then incubated with shaking at 37° C. for 40 minutes. After this incubation, 17 μL of each sample was deposited onto freshly cleaved mica. Samples were incubated for 5 minutes at room temperature before washing with 200 μL sterile water. After drying, the samples were scanned using an MFP-3D atomic force microscope (Asylum Research) set on A/C mode and a 240 m silicon cantilever (Olympus).
Many of the animal IAPP variants are known to likewise form fibrils and yield amyloid-plaques when scanned via AFM. […] This is in spite of the fact that all of these IAPP peptides (except polar bear IAPP) are known to aggregate and form fibrils themselves under these or similar conditions

Data set [2] has as its target T1, human IAPP (hIAPP). Nature of the data set: Thioflavin T binding assay of hIAPP aggregation when mixed with IAPP peptides. Format: biochemical. To be noted: for inhibition of hIAPP aggregation (summary statement): peptide mixed with hIAPP, no single assay (thioflavin T and AFM); for inhibition of hIAPP aggregation, thioflavin T binding: hIAPP mixed with peptide, incubated at 37° C. with shaking. An excerpt:
Any of a number of assays known to the art can be used to evaluate the ability of IAPP peptides to inhibit hIAPP aggregation and/or protect cells from hIAPP toxicity. Thioflavin T (ThT) binding is one such technique for identifying amyloid formation in real time. Human IAPP is known to bind thioflavin T during aggregation and amyloid formation, and upon binding to amyloid fibrils ThT will give a strong fluorescence signal at approximately 482 nm when excited at 450 nm. ThT fluorescence correlates linearly with amyloid concentration in a sample and therefore can be used to determine the amount of aggregation in a sample. This technique can therefore be used for identifying substances with amyloid-inhibiting potential when such substances are mixed with human IAPP under conditions known to result in the formation of aggregates by hIAPP. Determining the extent of aggregation can also be determined using other techniques, such as Atomic Force Microscopy (AFM), which can provide information about particle dimensions, shape, and substructure with nanometer resolution. In the foregoing assays and others that can be used by one of skill in the art, significant inhibition can be determined using a t-test by measuring the difference between hIAPP and hIAPP combined with an IAPP peptide.
To identify IAPP peptides having inhibitory potential against hIAPP aggregation, the peptides shown in FIG. 1 from a number of species (cow, degu, guinea pig, horse, pig, rat, and sheep[…]) were mixed with hIAPP at a 2:1 molar ratio of animal peptide to hIAPP and incubated under conditions known to promote hIAPP aggregation and fibril formation. IAPP alone, or hIAPP mixed with an animal IAPP, was pipetted into a glass tube and the HFIP was removed under speed-vacuum. The resulting peptide sample was dissolved in 20 mM Tris buffer pH 7.4.
37 μM human IAPP was mixed with 75 μM of each indicated animal IAPP. Aggregation was initiated by incubating samples at 37° C. with shaking at 200 rpm for 40 minutes. At indicated time points, a 17 μL aliquot of each sample was mixed with 663 μL of 50.0 μM thioflavin T in 20 mM Tris buffer (pH 7.4). Thioflavin T fluorescence emission was then recorded at 488 nm using a Hitachi F-7000 fluorescence spectrophotometer.
After 40 minutes, these samples were monitored for their ability to bind thioflavin T (see FIG. 2) and their ability to form fibrils as identified with atomic force microscopy.
Human IAPP (37 μM) was mixed with each of the indicated Weddell seal variants (at 75 μM) and incubated for 30 minutes at 37° C. with shaking at 200 rpm. The Weddell seal IAPP peptides were likewise subjected to atomic force microscopy as described in Example 2.
Human IAPP was mixed with each of the indicated raccoon variants and incubated at 37° C. with shaking.
Human IAPP was mixed with each of the indicated chicken variants and incubated at 37° C. with shaking. […] However, it was able to protect cells in MTT assays, so it is believed to inhibit formation of toxic oligomers while having a lesser effect on inhibiting the formation of fibers (which are less toxic and less able to bind ThT).
Human IAPP was mixed with each of the indicated chicken variants and incubated at 37° C. with shaking.

Another data set deals with RIN-m cells. The data set can be described thus: MTT viability assay, peptide alone or mixed with hIAPP. Format: cell-based. To be noted: for rescue / protection of cells from hIAPP toxicity (words): hIAPP mixed with peptide 1:1, MTT assay. An excerpt: Cytoprotection can likewise be measured by a number of assays known to the art. One such assay is the MTT assay, which is a colorimetric assay for assessing cell metabolic activity. NAD(P)H-dependent cellular oxidoreductase enzymes in the cytosolic compartment of a cell reduces the tetrazolium dye MTT 3-(4,5-dimethylthiazol-2-yl)-2,5-diphenyltetrazolium bromide to an insoluble form, formazan, which has a purple color. The reduction of MTT (and other tetrazolium dyes) depends on the cellular metabolic activity, so a loss of color in the course of performing an MTT assay indicates low metabolic activity, and is thus an indicator of cell damage and death.
To test cell viability, a MTT colorimetric assay measuring the conversion of yellow tetrazolium salt into purple formazan crystal catalyzed by a mitochondrial reductase was used. Cell viability studies were performed using RIN-m cells (ATCC, CRL-2057). An equal number of RIN-m cells were plated in triplicate and incubated overnight in 96-well plates. The next day, fresh RPMI-1640 with phenol red supplemented with 10% FBS was added to cells. Hexafluoroisopropanol (HFIP) was removed from each individual human and animal IAPP using a centrivap concentrator (LabOnco). All IAPP peptide samples were re-suspended in RPMI-1640 with 10% FBS. To ensure even re-suspension, each resulting IAPP-containing vial was scraped with a pipette tip six times and vortexed (Vortex Genie Mixer) for 15 seconds. The whole process, from drying each IAPP peptide to adding each IAPP peptide to the cells was uniform to ensure that each sample was incubated for an equal amount of time with each IAPP peptide. IAPP peptides were added to cells and incubated for 46 hours at 37° C. Post-incubation, the media in each well was replaced by fresh DMEM/F-12 without phenol red. MTT (3-(4,5-dimethyl-2-thiazolyl)-2,5-diphenyl-tetrazolium bromide) was added into each well and incubated at 37° C. for 2 hours. Formazan crystals, formed on the bottom of the wells, were re-suspended in solubilization buffer (20% SDS and 50% dimethylformamide). The absorbance in each well was taken at 570 nm using a Multiskan FC Microplate Photometer (Thermos Fisher Scientific). Media were obtained from ATCC. All incubations took place in a water jacketed incubator in 5% carbon dioxide at 37° C. (Shell Lab).
The MTT viability assay was used to measure cell viability of RIN-m cells upon addition of hIAPP alone, the addition of each animal IAPP peptide alone, and hIAPP mixed with each animal IAPP peptide (results shown in FIG. 5). RIN-m cells alone were used as a control and set to 100% cell viability. […] Addition of raccoon IAPP to hIAPP increased the cell viability from 55% to an average of 72% (p=0.005705). Addition of chicken IAPP variant to hIAPP increased cell viability to an average of 76% (p=0.013556).
(In general: Tetrazolium assays rely on reduction of a dye to a coloured formazan, in cell work by metabolically active cells.)

On to “KCNTATCATQRLANFLVRTSNNLGAILSPTNVGSNTY (ends and bridges not checked; cysteine pairing not given here) [dog IAPP]”, for which the “inhibition of hIAPP fibril formation, AFM” value (“inhibition … AFM” below) with human IAPP (hIAPP) [1] is recorded as “significant ability to prevent fiber formation”. For the same compound, the “inhibition of hIAPP aggregation (summary statement)” value (from here on “inhibition … (summary statement)”) in the data set with human IAPP (hIAPP) [2] is listed as “able to inhibit such aggregation”.

As to “degu IAPP: naturally occurring IAPP peptide of degu origin (FIG. 1) (KCNTATCATQRLTNFLVRSSHNLGAALPPTKVGSNTY; ends and bridges not checked; cysteine pairing not given here; UniProt P22889 37-73, looked up)”, the “inhibition … AFM” value in the data set with human IAPP (hIAPP) [1] was “either had no effect on hIAPP fibril formation or appeared to promote fibrils with hIAPP”. In the data set with human IAPP (hIAPP) [2], the “inhibition … (summary statement)” value is “failed to inhibit the aggregation of human IAPP”.

As for “KCNTATCVTQRLADFLVRSSSNLGAIYSPTNVGSNTY (Gallus gallus mutation) [Ch_I22L]”, in the data set with human IAPP (hIAPP) [1] (FIG. 22: 37 μM hIAPP mixed with 37 μM peptide, 37° C. with shaking for 30 minutes), the “inhibition of hIAPP fiber formation” value is “able to inhibit hIAPP fiber formation”. Further, the “rescue / protection of cells from hIAPP toxicity (words)” value (shortened to “rescue / protection of cells”) in the data set with RIN-m cells was “rescued cells from hIAPP-induced cytotoxicity”; with RIN-m cells (listed as Ch-122L), “rescue cells from hIAPP toxicity”. For the same compound, in the data set with RIN-m cells (peptide alone, MTT assay, pancreatic (RIN-m) cells), the “toxicity of peptide to cells” value was “minimal inherent toxicity”. Besides, the “inhibition of hIAPP aggregation, thioflavin T binding” value (from here on “inhibition … thioflavin T binding”) in the data set with human IAPP (hIAPP) [2] was “inhibited hIAPP aggregation”.

In the case of “cow IAPP: naturally occurring IAPP peptide of cow origin (FIG. 1) (CGTATCETQRLANFLAPSSNKLGAIFSPTKMGSNTY; ends and bridges not checked; cysteine pairing not given here)”, the “inhibition … AFM” value in the data set with human IAPP (hIAPP) [1] was “either had no effect on hIAPP fibril formation or appeared to promote fibrils with hIAPP”. The “inhibition … (summary statement)” value in the data set with human IAPP (hIAPP) [2] is “failed to inhibit the aggregation of human IAPP”.

Consider “guinea pig IAPP: naturally occurring IAPP peptide of guinea pig origin (FIG. 1) (KCNTATCATQRLTNFLVRSSHNLGAALLPTDVGSNTY; ends and bridges not checked; cysteine pairing not given here; UniProt P12966 37-73, looked up)”, for which the “inhibition … AFM” value with human IAPP (hIAPP) [1] is reported as “either had no effect on hIAPP fibril formation or appeared to promote fibrils with hIAPP”. Further, the “inhibition … (summary statement)” value with human IAPP (hIAPP) [2] was “failed to inhibit the aggregation of human IAPP”.

Consider “KCNTATCVTQRLANFLLRSSNNLGAILSP (Procyon lotor truncation) [R1-29]”, for which the “inhibition … AFM” value with human IAPP (hIAPP) [1] is reported as “did”. Moreover, the “rescue / protection of cells” value with RIN-m cells is on record as “rescued cells from hIAPP-induced cytotoxicity”. In addition, in the data set with human IAPP (hIAPP) [2], the “inhibition … thioflavin T binding” value is on record as “inhibited hIAPP aggregation”.

For the compound “KCNTATCATQRLANFLVRSSNNLGAILSSTNVGSNTY (Leptonychotes weddellii mutation) [WS_RL]”, the “inhibition … AFM” value with human IAPP (hIAPP) [1] is “strong inhibitors of hIAPP fiber formation”. In the data set on RIN-m cells, the “rescue / protection of cells” value was “rescued cells from hIAPP toxicity”. Moreover, the “inhibition … thioflavin T binding” value with human IAPP (hIAPP) [2] is “inhibited hIAPP aggregation”.

Turning to `CC[C@H](C)[C@H](NC(=O)[C@H](C)NC(=O)CNC(=O)[C@H](CC(C)C)NC(=O)[C@H](CC(N)=O)NC(=O)[C@H](CC(N)=O)NC(=O)[C@H](CO)NC(=O)[C@H](CO)NC(=O)[C@H](CCCNC(=N)N)NC(=O)[C@@H](NC(=O)[C@H](CC(C)C)NC(=O)[C@H](Cc1ccccc1)NC(=O)[C@H](CC(N)=O)NC(=O)[C@H](C)NC(=O)[C@H](CC(C)C)NC(=O)[C@H](CCCNC(=N)N)NC(=O)[C@H](CCC(N)=O)NC(=O)[C@@H](NC(=O)[C@H](C)NC(=O)[C@@H]1CSSC[C@H](NC(=O)[C@@H](N)CCCCN)C(=O)N[C@@H](CC(N)=O)C(=O)N[C@@H]([C@@H](C)O)C(=O)N[C@@H](C)C(=O)N[C@@H]([C@@H](C)O)C(=O)N1)[C@@H](C)O)[C@@H](C)CC)C(=O)N[C@@H](CC(C)C)C(=O)N[C@@H](CO)C(=O)N1CCC[C@H]1C(=O)N[C@H](C(=O)N[C@@H](CC(N)=O)C(=O)N[C@H](C(=O)NCC(=O)N[C@@H](CO)C(=O)N[C@@H](CC(N)=O)C(=O)N[C@H](C(=O)N[C@@H](Cc1ccc(O)cc1)C(N)=O)[C@@H](C)O)C(C)C)[C@@H](C)O` [cat IAPP] (H-KCNTATCATQRLANFLIRSSNNLGAILSPTNVGSNTY-NH2; disulfide 2-7 (inferred); N-terminus and C-terminus assumed), at human IAPP (hIAPP) [1], the “inhibition … AFM” value is listed as “significant ability to prevent fiber formation”. Further, on human IAPP (hIAPP) [2], the “inhibition … (summary statement)” value is “able to inhibit such aggregation”.
